Results as given in patent US20230272029A1, “CO-AGONISTS AT GLP-1 AND GIP RECEPTORS SUITABLE FOR ORAL DELIVERY” (Novo Nordisk A/S, priority 2020, published 2023).
Starred links: 1 amine or outer side, 2 acyl side, 3 side chain; linkers in the order of their positions; H or OH if unused. Non-standard residues stand in square brackets, D forms with d. Groups on a side chain read outwards from the residue. No end group written: not given here. *: point of attachment. C20 diacid = O=C(O)CCCCCCCCCCCCCCCCCCC(=O)*; C18 diacid = O=C(O)CCCCCCCCCCCCCCCCC(=O)*; γGlu = O=C(O)[C@H](CCC(=O)[*:2])N[*:1]; εLys = N[C@@H](CCCCN[*:1])C(=O)[*:2]; Aib = CC(C)(N)C(=O)O

B1: Compound No. 11 (peptide)
peptide: Y[Aib]EGTFTSDYSIYLEK([εLys-εLys-γGlu-C18 diacid])QAAREFINWLLAGGPSSGAPPPS-OH
modifications: N-terminus assumed
SMILES: CC[C@H](C)[C@H](NC(=O)[C@H](Cc1ccccc1)NC(=O)[C@H](CCC(=O)O)NC(=O)[C@H](CCCNC(=N)N)NC(=O)[C@H](C)NC(=O)[C@H](C)NC(=O)[C@H](CCC(N)=O)NC(=O)[C@H](CCCCNC(=O)[C@@H](N)CCCCNC(=O)[C@@H](N)CCCCNC(=O)CC[C@H](NC(=O)CCCCCCCCCCCCCCCCC(=O)O)C(=O)O)NC(=O)[C@H](CCC(=O)O)NC(=O)[C@H](CC(C)C)NC(=O)[C@H](Cc1ccc(O)cc1)NC(=O)[C@@H](NC(=O)[C@H](CO)NC(=O)[C@H](Cc1ccc(O)cc1)NC(=O)[C@H](CC(=O)O)NC(=O)[C@H](CO)NC(=O)[C@@H](NC(=O)[C@H](Cc1ccccc1)NC(=O)[C@@H](NC(=O)CNC(=O)[C@H](CCC(=O)O)NC(=O)C(C)(C)NC(=O)[C@@H](N)Cc1ccc(O)cc1)[C@@H](C)O)[C@@H](C)O)[C@@H](C)CC)C(=O)N[C@@H](CC(N)=O)C(=O)N[C@@H](Cc1c[nH]c2ccccc12)C(=O)N[C@@H](CC(C)C)C(=O)N[C@@H](CC(C)C)C(=O)N[C@@H](C)C(=O)NCC(=O)NCC(=O)N1CCC[C@H]1C(=O)N[C@@H](CO)C(=O)N[C@@H](CO)C(=O)NCC(=O)N[C@@H](C)C(=O)N1CCC[C@H]1C(=O)N1CCC[C@H]1C(=O)N1CCC[C@H]1C(=O)N[C@@H](CO)C(=O)O
B2: Compound No. 37 (peptide)
peptide: Y[Aib]EGTFTSDYSIYLEEQAARK([εLys-εLys-γGlu-C18 diacid])FINWLLAGGPSSGAPPPS-OH
modifications: N-terminus assumed
SMILES: CC[C@H](C)[C@H](NC(=O)[C@H](Cc1ccccc1)NC(=O)[C@H](CCCCNC(=O)[C@@H](N)CCCCNC(=O)[C@@H](N)CCCCNC(=O)CC[C@H](NC(=O)CCCCCCCCCCCCCCCCC(=O)O)C(=O)O)NC(=O)[C@H](CCCNC(=N)N)NC(=O)[C@H](C)NC(=O)[C@H](C)NC(=O)[C@H](CCC(N)=O)NC(=O)[C@H](CCC(=O)O)NC(=O)[C@H](CCC(=O)O)NC(=O)[C@H](CC(C)C)NC(=O)[C@H](Cc1ccc(O)cc1)NC(=O)[C@@H](NC(=O)[C@H](CO)NC(=O)[C@H](Cc1ccc(O)cc1)NC(=O)[C@H](CC(=O)O)NC(=O)[C@H](CO)NC(=O)[C@@H](NC(=O)[C@H](Cc1ccccc1)NC(=O)[C@@H](NC(=O)CNC(=O)[C@H](CCC(=O)O)NC(=O)C(C)(C)NC(=O)[C@@H](N)Cc1ccc(O)cc1)[C@@H](C)O)[C@@H](C)O)[C@@H](C)CC)C(=O)N[C@@H](CC(N)=O)C(=O)N[C@@H](Cc1c[nH]c2ccccc12)C(=O)N[C@@H](CC(C)C)C(=O)N[C@@H](CC(C)C)C(=O)N[C@@H](C)C(=O)NCC(=O)NCC(=O)N1CCC[C@H]1C(=O)N[C@@H](CO)C(=O)N[C@@H](CO)C(=O)NCC(=O)N[C@@H](C)C(=O)N1CCC[C@H]1C(=O)N1CCC[C@H]1C(=O)N1CCC[C@H]1C(=O)N[C@@H](CO)C(=O)O
B3: Compound No. 12 (peptide)
peptide: Y[Aib]EGTFTSDYSIYLEK([εLys-εLys-γGlu-C18 diacid])QAAREFIEWLLRGGPSSGAPPPS-OH
modifications: N-terminus assumed
SMILES: CC[C@H](C)[C@H](NC(=O)[C@H](Cc1ccccc1)NC(=O)[C@H](CCC(=O)O)NC(=O)[C@H](CCCNC(=N)N)NC(=O)[C@H](C)NC(=O)[C@H](C)NC(=O)[C@H](CCC(N)=O)NC(=O)[C@H](CCCCNC(=O)[C@@H](N)CCCCNC(=O)[C@@H](N)CCCCNC(=O)CC[C@H](NC(=O)CCCCCCCCCCCCCCCCC(=O)O)C(=O)O)NC(=O)[C@H](CCC(=O)O)NC(=O)[C@H](CC(C)C)NC(=O)[C@H](Cc1ccc(O)cc1)NC(=O)[C@@H](NC(=O)[C@H](CO)NC(=O)[C@H](Cc1ccc(O)cc1)NC(=O)[C@H](CC(=O)O)NC(=O)[C@H](CO)NC(=O)[C@@H](NC(=O)[C@H](Cc1ccccc1)NC(=O)[C@@H](NC(=O)CNC(=O)[C@H](CCC(=O)O)NC(=O)C(C)(C)NC(=O)[C@@H](N)Cc1ccc(O)cc1)[C@@H](C)O)[C@@H](C)O)[C@@H](C)CC)C(=O)N[C@@H](CCC(=O)O)C(=O)N[C@@H](Cc1c[nH]c2ccccc12)C(=O)N[C@@H](CC(C)C)C(=O)N[C@@H](CC(C)C)C(=O)N[C@@H](CCCNC(=N)N)C(=O)NCC(=O)NCC(=O)N1CCC[C@H]1C(=O)N[C@@H](CO)C(=O)N[C@@H](CO)C(=O)NCC(=O)N[C@@H](C)C(=O)N1CCC[C@H]1C(=O)N1CCC[C@H]1C(=O)N1CCC[C@H]1C(=O)N[C@@H](CO)C(=O)O
B4: Compound No. 13 (peptide)
peptide: Y[Aib]EGTFTSDYSIYLEK([εLys-εLys-γGlu-C18 diacid])QAAREFIEWLLRGGPESGAPPPS-OH
modifications: N-terminus assumed
SMILES: CC[C@H](C)[C@H](NC(=O)[C@H](Cc1ccccc1)NC(=O)[C@H](CCC(=O)O)NC(=O)[C@H](CCCNC(=N)N)NC(=O)[C@H](C)NC(=O)[C@H](C)NC(=O)[C@H](CCC(N)=O)NC(=O)[C@H](CCCCNC(=O)[C@@H](N)CCCCNC(=O)[C@@H](N)CCCCNC(=O)CC[C@H](NC(=O)CCCCCCCCCCCCCCCCC(=O)O)C(=O)O)NC(=O)[C@H](CCC(=O)O)NC(=O)[C@H](CC(C)C)NC(=O)[C@H](Cc1ccc(O)cc1)NC(=O)[C@@H](NC(=O)[C@H](CO)NC(=O)[C@H](Cc1ccc(O)cc1)NC(=O)[C@H](CC(=O)O)NC(=O)[C@H](CO)NC(=O)[C@@H](NC(=O)[C@H](Cc1ccccc1)NC(=O)[C@@H](NC(=O)CNC(=O)[C@H](CCC(=O)O)NC(=O)C(C)(C)NC(=O)[C@@H](N)Cc1ccc(O)cc1)[C@@H](C)O)[C@@H](C)O)[C@@H](C)CC)C(=O)N[C@@H](CCC(=O)O)C(=O)N[C@@H](Cc1c[nH]c2ccccc12)C(=O)N[C@@H](CC(C)C)C(=O)N[C@@H](CC(C)C)C(=O)N[C@@H](CCCNC(=N)N)C(=O)NCC(=O)NCC(=O)N1CCC[C@H]1C(=O)N[C@@H](CCC(=O)O)C(=O)N[C@@H](CO)C(=O)NCC(=O)N[C@@H](C)C(=O)N1CCC[C@H]1C(=O)N1CCC[C@H]1C(=O)N1CCC[C@H]1C(=O)N[C@@H](CO)C(=O)O
B5: Compound No. 1 (peptide)
peptide: Y[Aib]EGTFTSDYSIYLEK([εLys-εLys-γGlu-C20 diacid])QAAQEFVNWLLAGGPSSGAPPPS-NH2
modifications: N-terminus assumed
SMILES: CC[C@H](C)[C@H](NC(=O)[C@H](CO)NC(=O)[C@H](Cc1ccc(O)cc1)NC(=O)[C@H](CC(=O)O)NC(=O)[C@H](CO)NC(=O)[C@@H](NC(=O)[C@H](Cc1ccccc1)NC(=O)[C@@H](NC(=O)CNC(=O)[C@H](CCC(=O)O)NC(=O)C(C)(C)NC(=O)[C@@H](N)Cc1ccc(O)cc1)[C@@H](C)O)[C@@H](C)O)C(=O)N[C@@H](Cc1ccc(O)cc1)C(=O)N[C@@H](CC(C)C)C(=O)N[C@@H](CCC(=O)O)C(=O)N[C@@H](CCCCNC(=O)[C@@H](N)CCCCNC(=O)[C@@H](N)CCCCNC(=O)CC[C@H](NC(=O)CCCCCCCCCCCCCCCCCCC(=O)O)C(=O)O)C(=O)N[C@@H](CCC(N)=O)C(=O)N[C@@H](C)C(=O)N[C@@H](C)C(=O)N[C@@H](CCC(N)=O)C(=O)N[C@@H](CCC(=O)O)C(=O)N[C@@H](Cc1ccccc1)C(=O)N[C@H](C(=O)N[C@@H](CC(N)=O)C(=O)N[C@@H](Cc1c[nH]c2ccccc12)C(=O)N[C@@H](CC(C)C)C(=O)N[C@@H](CC(C)C)C(=O)N[C@@H](C)C(=O)NCC(=O)NCC(=O)N1CCC[C@H]1C(=O)N[C@@H](CO)C(=O)N[C@@H](CO)C(=O)NCC(=O)N[C@@H](C)C(=O)N1CCC[C@H]1C(=O)N1CCC[C@H]1C(=O)N1CCC[C@H]1C(=O)N[C@@H](CO)C(N)=O)C(C)C

Molecular target: human GLP-1 receptor (human, UniProt P43220 24-463)
Experiment: cell-based or functional assay

Binder	hGLP-1R, CRE Luc 0% HSA EC50 (pM)	hGLP-1R, CRE Luc 1% HSA EC50 (pM)
B1	3.3	132
B2	2.7	94.6
B3	4	54.4
B4	7.4	204
B5	7.8	1660

Molecular target: T1, human GIP receptor (human, UniProt P48546 22-466)
T1 sequence (looked up): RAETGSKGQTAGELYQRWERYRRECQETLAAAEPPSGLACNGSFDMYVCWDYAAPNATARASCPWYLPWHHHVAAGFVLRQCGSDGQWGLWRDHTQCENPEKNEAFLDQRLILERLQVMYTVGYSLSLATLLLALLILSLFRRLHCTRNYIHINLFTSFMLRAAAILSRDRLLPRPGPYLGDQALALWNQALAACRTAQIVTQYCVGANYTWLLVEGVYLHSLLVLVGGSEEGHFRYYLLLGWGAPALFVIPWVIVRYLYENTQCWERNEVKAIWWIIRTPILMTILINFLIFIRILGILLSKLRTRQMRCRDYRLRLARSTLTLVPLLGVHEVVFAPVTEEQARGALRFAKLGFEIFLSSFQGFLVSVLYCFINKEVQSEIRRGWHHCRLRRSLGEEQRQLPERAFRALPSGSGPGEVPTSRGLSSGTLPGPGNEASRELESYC
Experiment: cell-based or functional assay

Binder	hGIPR, CRE Luc 0% HSA EC50 (pM)	hGIPR, CRE Luc 1% HSA EC50 (pM)
B1	9.9	450
B2	11.2	298
B3	9	71.5
B4	13.9	257
B5	2.8	172
